According to article PMC12453405:

Assays:
Test in all cases: quartz crystal microbalance (QCM); purified N protein injected first onto the coated quartz crystal, then GST, then Grb2-GST; PBS pH 7.4, flow 60 μl/min; Tris-HCl pH 8.0 between injections; binding ratio = amplitude difference of Grb2-GST before and after binding over the amplitude of N protein
[1] = biological target: PEDV-N (His-fused N protein of Alphacoronavirus PEDV) (PEDV)
[2] = biological target: mPDCoV-N (P61A/P292A) (porcine deltacoronavirus (PDCoV))
[3] = biological target: wPDCoV-N (His-fused PDCoV N protein) (porcine deltacoronavirus (PDCoV))

Work on “Grb2-GST (pGEX-Grb2) (from UniProt B6E241 1-217) (natural protein)” yielded a binding ratio [1] of 23.5%, a binding ratio [2] of 19.7% and a binding ratio [3] of 31.6%.
